This passage reports Kd results from article PMC12500691.

The term Kd denotes the free concentration of one partner at which half of the binding sites on the other are occupied at equilibrium, for simple one-to-one binding. Higher therefore signals lower affinity.

The assay has as its target Spike. Nature of the assay: SPR. For orientation: Surface plasmon resonance follows binding to a sensor surface in real time, without labels.

Chain of human angiotensin converting enzyme 2 (Q9BYF1 20-611): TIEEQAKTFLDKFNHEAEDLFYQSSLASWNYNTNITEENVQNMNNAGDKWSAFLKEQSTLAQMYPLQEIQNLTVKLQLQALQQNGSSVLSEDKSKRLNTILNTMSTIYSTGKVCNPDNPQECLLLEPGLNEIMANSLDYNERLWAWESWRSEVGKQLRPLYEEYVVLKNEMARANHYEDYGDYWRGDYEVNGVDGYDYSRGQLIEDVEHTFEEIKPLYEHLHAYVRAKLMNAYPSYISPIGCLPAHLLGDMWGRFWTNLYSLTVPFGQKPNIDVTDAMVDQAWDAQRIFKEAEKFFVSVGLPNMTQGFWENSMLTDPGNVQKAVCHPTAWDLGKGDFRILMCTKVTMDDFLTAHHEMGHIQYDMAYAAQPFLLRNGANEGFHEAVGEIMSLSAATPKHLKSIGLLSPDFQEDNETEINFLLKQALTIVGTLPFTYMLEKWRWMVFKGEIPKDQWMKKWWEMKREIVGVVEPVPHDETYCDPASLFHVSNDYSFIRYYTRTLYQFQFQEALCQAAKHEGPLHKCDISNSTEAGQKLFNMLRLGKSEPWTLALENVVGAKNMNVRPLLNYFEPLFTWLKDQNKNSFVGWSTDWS

Take “human angiotensin converting enzyme 2 (from UniProt Q9BYF1-1 20-611) (receptor)”: the equilibrium dissociation constant (Kd) worked out at 370 nM.
